*1 amine or outer side, *2 acyl side, *3 side chain or, on linkers, in order; H or OH if unused. Bridges are numbered along the chain shown (N, C = ends). [ ]: non-standard residue; d: D form. Pqa = N-piperazin-1-yl-4(3H)-quinazolinone-3-acetic acid, O=C(Cn1cnc2ccc(N3CCN([*:1])CC3)cc2c1=O)[*:2]; Cms = N-(5-O-carboxymethyl)-serotonin, O=C(COc1ccc2[nH]cc(CCN[*:1])c2c1)[*:2]; Phe(3,4,5-F3) = N[C@@H](Cc1cc(F)c(F)c(F)c1)C(=O)O; Phe(F5) = N[C@@H](Cc1c(F)c(F)c(F)c(F)c1F)C(=O)O; 4Pal = N[C@@H](Cc1ccncc1)C(=O)O; 4‑MeOApc = not defined here; Nle = CCCC[C@H](N)C(=O)O
Experiments:
Assay in all cases: cell-based or functional assay
human NPY2 receptor = biological target: T1, human NPY2 receptor (human, UniProt P49146 1-381)
T1 sequence (looked up): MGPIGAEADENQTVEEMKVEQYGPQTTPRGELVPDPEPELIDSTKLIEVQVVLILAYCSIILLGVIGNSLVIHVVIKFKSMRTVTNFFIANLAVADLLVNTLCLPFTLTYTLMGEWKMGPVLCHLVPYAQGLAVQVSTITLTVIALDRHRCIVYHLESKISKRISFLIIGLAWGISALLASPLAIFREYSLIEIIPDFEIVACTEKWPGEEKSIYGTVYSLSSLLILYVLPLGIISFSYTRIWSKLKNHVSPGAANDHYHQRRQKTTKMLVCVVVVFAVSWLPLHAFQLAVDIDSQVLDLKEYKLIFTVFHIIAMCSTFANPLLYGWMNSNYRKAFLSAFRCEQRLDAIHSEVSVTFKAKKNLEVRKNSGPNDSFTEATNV

Y1R = biological target: Y1R
Y4R = biological target: Y4R

Y1R, sequence (P25929 whole entry): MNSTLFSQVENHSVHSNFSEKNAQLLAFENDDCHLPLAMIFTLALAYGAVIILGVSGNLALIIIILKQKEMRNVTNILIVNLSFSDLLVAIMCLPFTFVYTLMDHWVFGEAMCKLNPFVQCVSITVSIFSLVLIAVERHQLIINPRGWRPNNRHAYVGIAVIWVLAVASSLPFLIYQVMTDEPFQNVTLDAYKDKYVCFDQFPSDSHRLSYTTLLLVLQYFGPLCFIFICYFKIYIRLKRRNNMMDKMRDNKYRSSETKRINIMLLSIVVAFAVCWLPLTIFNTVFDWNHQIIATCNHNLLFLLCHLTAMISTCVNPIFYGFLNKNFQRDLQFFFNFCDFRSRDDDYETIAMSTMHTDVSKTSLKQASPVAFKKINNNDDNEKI

Row | Binder | Y2R EC50(nM) FLIPR (human NPY2 receptor) [nM] | Y2R IC50(nM) cAMP (human NPY2 receptor) [nM] | Y1R EC50(nM) FLIPR (Y1R) [nM] | Y4R EC50(nM) FLIPR (Y4R) [nM]
1 | IKRHYLNLVTRQRY (N-methyl Arg at PYY position 35 (residue 11 of the second part); Pqa moiety between the two parts; C-terminal amide) [H-Ile-Lys-Pqa-Arg-His-Tyr-Leu-Asn-Leu-Val-Thr-Arg-Gln-(NMe)Arg-Tyr-NH2] | 18.9 | 0.417 |  | 
2 | IKRHYLNLVTRQRY ((D)Arg at PYY position 35 (residue 11 of the second part); Pqa moiety between the two parts; C-terminal amide) [H-Ile-Lys-Pqa-Arg-His-Tyr-Leu-Asn-Leu-Val-Thr-Arg-Gln-(D)Arg-Tyr-NH2] |  |  | > 5000 | > 5000
3 | AKRHYLNLVTRQRY (Pqa moiety between the two parts; C-terminal amide) [H-Ala-Lys-Pqa-Arg-His-Tyr-Leu-Asn-Leu-Val-Thr-Arg-Gln-Arg-Tyr-NH2] |  |  | > 5000 | > 5000
4 | Ac-I[Nle][Pqa]R[4Pal]YLNLVTRQRY-NH2 (SMILES CCCC[C@H](NC(=O)[C@@H](NC(C)=O)[C@@H](C)CC)C(=O)N1CCN(c2ccc3ncn(CC(=O)N[C@@H](CCCNC(=N)N)C(=O)N[C@@H](Cc4ccncc4)C(=O)N[C@@H](Cc4ccc(O)cc4)C(=O)N[C@@H](CC(C)C)C(=O)N[C@@H](CC(N)=O)C(=O)N[C@@H](CC(C)C)C(=O)N[C@H](C(=O)N[C@H](C(=O)N[C@@H](CCCNC(=N)N)C(=O)N[C@@H](CCC(N)=O)C(=O)N[C@@H](CCCNC(=N)N)C(=O)N[C@@H](Cc4ccc(O)cc4)C(N)=O)[C@@H](C)O)C(C)C)c(=O)c3c2)CC1) [Ac-Ile-Nle-Pqa-Arg-(4-Pal)-Tyr-Leu-Asn-Leu-Val-Thr-Arg-Gln-Arg-Tyr-NH2] |  |  | > 5000 | > 5000
5 | H-IK[Pqa]RHYLNLVARQRY-NH2 (SMILES CC[C@H](C)[C@H](N)C(=O)N[C@@H](CCCCN)C(=O)N1CCN(c2ccc3ncn(CC(=O)N[C@@H](CCCNC(=N)N)C(=O)N[C@@H](Cc4c[nH]cn4)C(=O)N[C@@H](Cc4ccc(O)cc4)C(=O)N[C@@H](CC(C)C)C(=O)N[C@@H](CC(N)=O)C(=O)N[C@@H](CC(C)C)C(=O)N[C@H](C(=O)N[C@@H](C)C(=O)N[C@@H](CCCNC(=N)N)C(=O)N[C@@H](CCC(N)=O)C(=O)N[C@@H](CCCNC(=N)N)C(=O)N[C@@H](Cc4ccc(O)cc4)C(N)=O)C(C)C)c(=O)c3c2)CC1) [H-Ile-Lys-Pqa-Arg-His-Tyr-Leu-Asn-Leu-Val-Ala-Arg-Gln-Arg-Tyr-NH2] |  |  | > 5000 | > 5000
6 | IARHYLNLVTRQRY (Pqa moiety between the two parts; C-terminal amide) [H-Ile-Ala-Pqa-Arg-His-Tyr-Leu-Asn-Leu-Val-Thr-Arg-Gln-Arg-Tyr-NH2] |  |  | 1000 | > 5000
7 | Ac-I[Nle][Cms]RHYKNLVDRQRY-NH2 (lactam 7-11; SMILES CCCC[C@H](NC(=O)[C@@H](NC(C)=O)[C@@H](C)CC)C(=O)NCCc1c[nH]c2ccc(OCC(=O)N[C@@H](CCCNC(=N)N)C(=O)N[C@@H](Cc3c[nH]cn3)C(=O)N[C@@H](Cc3ccc(O)cc3)C(=O)N[C@H]3CCCCNC(=O)C[C@@H](C(=O)N[C@@H](CCCNC(=N)N)C(=O)N[C@@H](CCC(N)=O)C(=O)N[C@@H](CCCNC(=N)N)C(=O)N[C@@H](Cc4ccc(O)cc4)C(N)=O)NC(=O)[C@H](C(C)C)NC(=O)[C@H](CC(C)C)NC(=O)[C@H](CC(N)=O)NC3=O)cc12) [Cyclo Lys28-Aspu32 Ac-Ile-Nle-Cms-Arg-His-Tyr-Lys-Asn-Leu-Val-Asp-Arg-Gln-Arg-Tyr-NH2] | 146 | 32.2 | > 5000 | > 5000
8 | IKRHYLNLVTRQRY ((D)Arg at PYY position 33 (residue 9 of the second part); Pqa moiety between the two parts; C-terminal amide) [H-Ile-Lys-Pqa-Arg-His-Tyr-Leu-Asn-Leu-Val-Thr-(D)Arg-Gln-Arg-Tyr-NH2] |  |  | > 5000 | > 5000
9 | IKRHYLNLVTRQRY ((D)Val at PYY position 31 (residue 7 of the second part); Pqa moiety between the two parts; C-terminal amide) [H-Ile-Lys-Pqa-Arg-His-Tyr-Leu-Asn-Leu-(D)Val-Thr-Arg-Gln-Arg-Tyr-NH2] |  |  | > 5000 | > 5000
10 | H-IK[Pqa]RHYLNLATRQRY-NH2 (SMILES CC[C@H](C)[C@H](N)C(=O)N[C@@H](CCCCN)C(=O)N1CCN(c2ccc3ncn(CC(=O)N[C@@H](CCCNC(=N)N)C(=O)N[C@@H](Cc4c[nH]cn4)C(=O)N[C@@H](Cc4ccc(O)cc4)C(=O)N[C@@H](CC(C)C)C(=O)N[C@@H](CC(N)=O)C(=O)N[C@@H](CC(C)C)C(=O)N[C@@H](C)C(=O)N[C@H](C(=O)N[C@@H](CCCNC(=N)N)C(=O)N[C@@H](CCC(N)=O)C(=O)N[C@@H](CCCNC(=N)N)C(=O)N[C@@H](Cc4ccc(O)cc4)C(N)=O)[C@@H](C)O)c(=O)c3c2)CC1) [H-Ile-Lys-Pqa-Arg-His-Tyr-Leu-Asn-Leu-Ala-Thr-Arg-Gln-Arg-Tyr-NH2] |  |  | > 5000 | > 5000
11 | Ac-I[Nle][Pqa][Phe(3,4,5-F3)]HYLNLVTRQRY-NH2 (SMILES CCCC[C@H](NC(=O)[C@@H](NC(C)=O)[C@@H](C)CC)C(=O)N1CCN(c2ccc3ncn(CC(=O)N[C@@H](Cc4cc(F)c(F)c(F)c4)C(=O)N[C@@H](Cc4c[nH]cn4)C(=O)N[C@@H](Cc4ccc(O)cc4)C(=O)N[C@@H](CC(C)C)C(=O)N[C@@H](CC(N)=O)C(=O)N[C@@H](CC(C)C)C(=O)N[C@H](C(=O)N[C@H](C(=O)N[C@@H](CCCNC(=N)N)C(=O)N[C@@H](CCC(N)=O)C(=O)N[C@@H](CCCNC(=N)N)C(=O)N[C@@H](Cc4ccc(O)cc4)C(N)=O)[C@@H](C)O)C(C)C)c(=O)c3c2)CC1) [Ac-Ile-Nle-Pqa-(3,4,5 Trifluoro Phe)-His-Tyr-Leu-Asn-Leu-Val-Thr-Arg-Gln-Arg-Tyr-NH2] |  |  | > 5000 | > 5000
12 | H-IK[Pqa]RAYLNLVTRQRY-NH2 (SMILES CC[C@H](C)[C@H](N)C(=O)N[C@@H](CCCCN)C(=O)N1CCN(c2ccc3ncn(CC(=O)N[C@@H](CCCNC(=N)N)C(=O)N[C@@H](C)C(=O)N[C@@H](Cc4ccc(O)cc4)C(=O)N[C@@H](CC(C)C)C(=O)N[C@@H](CC(N)=O)C(=O)N[C@@H](CC(C)C)C(=O)N[C@H](C(=O)N[C@H](C(=O)N[C@@H](CCCNC(=N)N)C(=O)N[C@@H](CCC(N)=O)C(=O)N[C@@H](CCCNC(=N)N)C(=O)N[C@@H](Cc4ccc(O)cc4)C(N)=O)[C@@H](C)O)C(C)C)c(=O)c3c2)CC1) [H-Ile-Lys-Pqa-Arg-Ala-Tyr-Leu-Asn-Leu-Val-Thr-Arg-Gln-Arg-Tyr-NH2] |  |  | > 5000 | > 5000
13 | IKRHYLNLVTRQRY ((D)Leu at PYY position 30 (residue 6 of the second part); Pqa moiety between the two parts; C-terminal amide) [H-Ile-Lys-Pqa-Arg-His-Tyr-Leu-Asn-(D)Leu-Val-Thr-Arg-Gln-Arg-Tyr-NH2] |  |  | > 5000 | > 5000
14 | IKRHYLNAVTRQRY (Pqa moiety between the two parts; C-terminal amide) [H-Ile-Lys-Pqa-Arg-His-Tyr-Leu-Asn-Ala-Val-Thr-Arg-Gln-Arg-Tyr-NH2] |  |  | > 5000 | > 5000
15 | Ac-I[Nle][Pqa][Phe(F5)]HYLNLVTRQRY-NH2 (SMILES CCCC[C@H](NC(=O)[C@@H](NC(C)=O)[C@@H](C)CC)C(=O)N1CCN(c2ccc3ncn(CC(=O)N[C@@H](Cc4c(F)c(F)c(F)c(F)c4F)C(=O)N[C@@H](Cc4c[nH]cn4)C(=O)N[C@@H](Cc4ccc(O)cc4)C(=O)N[C@@H](CC(C)C)C(=O)N[C@@H](CC(N)=O)C(=O)N[C@@H](CC(C)C)C(=O)N[C@H](C(=O)N[C@H](C(=O)N[C@@H](CCCNC(=N)N)C(=O)N[C@@H](CCC(N)=O)C(=O)N[C@@H](CCCNC(=N)N)C(=O)N[C@@H](Cc4ccc(O)cc4)C(N)=O)[C@@H](C)O)C(C)C)c(=O)c3c2)CC1) [Ac-Ile-Nle-Pqa-(2,3,4,5,6 Penta fluoro Phe)-His Tyr-Leu-Asn-Leu-Val-Thr-Arg-Gln-Arg-Tyr-NH2] |  |  | > 5000 | > 5000
16 | IARHYLNLVTRQRY (N-terminal acetyl; Pqa moiety between the two parts; C-terminal amide) [Ac-Ile-Ala-Pqa-Arg-His-Tyr-Leu-Asn-Leu-Val-Thr-Arg-Gln-Arg-Tyr-NH2] |  |  | > 5000 | 3020
17 | H-IK[Pqa]RHYLALVTRQRY-NH2 (SMILES CC[C@H](C)[C@H](N)C(=O)N[C@@H](CCCCN)C(=O)N1CCN(c2ccc3ncn(CC(=O)N[C@@H](CCCNC(=N)N)C(=O)N[C@@H](Cc4c[nH]cn4)C(=O)N[C@@H](Cc4ccc(O)cc4)C(=O)N[C@@H](CC(C)C)C(=O)N[C@@H](C)C(=O)N[C@@H](CC(C)C)C(=O)N[C@H](C(=O)N[C@H](C(=O)N[C@@H](CCCNC(=N)N)C(=O)N[C@@H](CCC(N)=O)C(=O)N[C@@H](CCCNC(=N)N)C(=O)N[C@@H](Cc4ccc(O)cc4)C(N)=O)[C@@H](C)O)C(C)C)c(=O)c3c2)CC1) [H-Ile-Lys-Pqa-Arg-His-Tyr-Leu-Ala-Leu-Val-Thr-Arg-Gln-Arg-Tyr-NH2] |  |  | > 5000 | > 5000
18 | IKGRHYLNLVTRQRY (Cms moiety between the two parts; C-terminal amide) [H-Ile-Lys-Gly-Cms-Arg-His-Tyr-Leu-Asn-Leu-Val-Thr-Arg-Gln-Arg-Tyr-NH2] | 4.16 | 0.085 |  | 
19 | Ac-I[Nle][Pqa]R[4‑MeOApc]YLNLVTRQRY-NH2 (reading uncertain) [Ac-Ile-Nle-Pqa-Arg-(4-MeOApc)-Tyr-Leu-Asn-Leu-Val-Thr-Arg-Gln-Arg-Tyr-NH2] |  |  | > 5000 | > 5000
